Positions count from the first letter of the chain named. In names and notes the source's numbering stands.
T1: murine OX40 (murine, UniProt P47741 20-211, limits assumed)
T1 sequence (looked up): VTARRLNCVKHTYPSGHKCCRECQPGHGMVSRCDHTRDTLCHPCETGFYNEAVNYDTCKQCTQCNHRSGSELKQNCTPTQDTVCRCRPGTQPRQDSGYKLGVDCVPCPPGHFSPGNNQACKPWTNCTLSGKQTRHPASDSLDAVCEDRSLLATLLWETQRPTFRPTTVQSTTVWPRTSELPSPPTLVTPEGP

T2: OX40 chimera 1548: human OX40 with mouse module 3 and domains 4A and 4B (aa 108-167), on FreeStyle 293-F cells (human; mouse, UniProt P47741 104-165)
T2 construct: domain: module 3, 4A and 4B; Limits derived as for 1544
T2 sequence: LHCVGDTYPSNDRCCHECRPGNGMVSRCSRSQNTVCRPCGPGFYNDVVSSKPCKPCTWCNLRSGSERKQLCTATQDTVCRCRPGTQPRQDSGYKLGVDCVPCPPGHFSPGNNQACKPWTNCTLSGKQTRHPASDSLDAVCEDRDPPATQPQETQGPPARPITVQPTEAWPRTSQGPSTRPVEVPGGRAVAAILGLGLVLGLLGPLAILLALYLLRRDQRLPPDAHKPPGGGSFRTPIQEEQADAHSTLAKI

B1: anti-OX40 antibody 1490/1135 (antibody, V domains shown)
VH: EVQLLESGGGLVQPGGSLRLSCAASGFTFSSYAMSWVRQAPGKGLEWVSGISYYGGYTYYADSVKGRFTISRDNSKNTLYLQMNSLRAEDTAVYYCARYYPHHYIDYWGQGTLVTVSS
VL: not shown
notes: Tested as IgG
B2: CD86 mutant 910 (ligand)
chain: LKIQAYFNETADLPCQFANSQNQSLSELVVFWQDQENLVLNEVYLGKEKFDSVDSKYMGRTSFDSDSWTLRLHNLQIKDKGIYQCIIHHKKPTGMVKIHEMNSELSVLA
notes: Variant of the CD86 extracellular domain
B3: CD86 mutant 901 (ligand)
chain: B2 chain with Q23L, S24T, D54H, I86V, V96I, A109T
notes: as for B2
B4: CD86 mutant 904 (ligand)
chain: B2 chain with V29I, K49R, S52A, T93S, E100Q, N102D
notes: as for B2
B5: CD86 mutant 938 (ligand)
chain: B2 chain with V39I, D54H, E100Q
notes: as for B2
B6: CD86 mutant 907 (ligand)
chain: B2 chain with D54H, I82L, V96I
notes: as for B2
B7: CD86 mutant 906 (ligand)
chain: B2 chain with F7I, Q23L, K49R, I82F, M95L
notes: as for B2
B8: CD86 mutant 900 (ligand)
chain: B2 chain with I86V, T93S, M95L
notes: as for B2
B9: CD86 mutant 915 (ligand)
chain: B2 chain with V39I, I82F, T93S, M95L, V96I, E100Q, N102D
notes: as for B2
B10: CD86 mutant 908 (ligand)
chain: B2 chain with D54H
notes: as for B2
B11: CD86 mutant 1038 (ligand)
chain: APLKIQAYFNETADLPCQFANSQNLSLSELVVFWQDQENLVLNEVYLGKEKFDSVDSKYMGRTSFDSDSWTLRLHNLQIKDKGIYQCIIHHKKPTGMVKIHEMNSELSVLA
notes: as for B2
B12: CD86 mutant 1046 (ligand)
chain: B11 chain with L25Q, K80E, T95S, E102Q, N104D
notes: as for B2
B13: CD86 mutant 1047 (ligand)
chain: B11 chain with M97L
notes: as for B2
B14: CD86 mutant 1041 (ligand)
chain: B11 chain with F9L, M97L
notes: as for B2
B15: CD86 mutant 1042 (ligand)
chain: B11 chain with K51I, D56S, T95S, E102Q, N104D
notes: as for B2
B16: CD86 mutant 1039 (ligand)
chain: B11 chain with D56S, T95S, E102Q, N104D
notes: as for B2
B17: CD86 mutant 1045 (ligand)
chain: B11 chain with S26T, I84L, M97L
notes: as for B2
B18: CD86 mutant 1043 (ligand)
chain: B11 chain with V98I
notes: as for B2
B19: CD86 mutant 1044 (ligand)
chain: B11 chain with S26T, D56S, V98I, N104S
notes: as for B2
B20: human wild-type CD86 (monomeric soluble extracellular domain) (ligand)
chain: B11 chain with L25Q, D56H, I84L, V98I, K99R, E102Q
notes: also called wild type protein
B21: CD86 mutant H79A (Peach et al.) (ligand)
chain: B11 chain with L25Q, D56A, I84L, V98I, K99R, E102Q
notes: also called Prior Art

molecular target: T1, murine OX40; assay: ELISA

binding result | Binder
no binding | B1

molecular target: T3, CD40 (Ancell) (UniProt P25942 21-193); assay: ELISA
T3 construct: also called CD40-Fc (Ancell #504-820); not shown: Fc part, not described
T3 sequence (P25942 21-193 limits assumed): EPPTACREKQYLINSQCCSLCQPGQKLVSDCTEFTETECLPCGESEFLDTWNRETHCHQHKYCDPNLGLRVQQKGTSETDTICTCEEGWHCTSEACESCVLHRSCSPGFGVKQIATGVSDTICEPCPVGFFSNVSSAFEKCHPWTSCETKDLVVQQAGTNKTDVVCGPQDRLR

binding result | Binder
no binding | B1

molecular target: T4, recombinant human CD137-Fc (R&D #838-4B) (human, UniProt Q07011 24-186); assay: ELISA
T4 construct: Bought; also called Human CD137 (R&D systems); CD137 (R&D Systems); not shown: Fc part, not described
T4 sequence (Q07011 24-186 limits assumed): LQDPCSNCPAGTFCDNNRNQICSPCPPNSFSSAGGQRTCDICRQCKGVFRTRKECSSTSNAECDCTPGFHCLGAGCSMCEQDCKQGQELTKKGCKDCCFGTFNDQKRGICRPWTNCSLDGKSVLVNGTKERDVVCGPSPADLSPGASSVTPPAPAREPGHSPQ

binding result | Binder
no binding | B1

molecular target: T5, soluble murine CTLA-4 (R&D systems) (murine, UniProt P09793 36-162); assay: not described
T5 construct: Bought
Protocol: In brief, 96-well flat bottom plate high binding plates (Greiner #655074) were coated with human CTLA-4 (Fitzgerald) incubating overnight at 4° C.
The sample (exemplary CD86 mutant) was pre-incubated at room temperature for 1 hour with soluble biotinylated human CTLA4 (Fitzgerald #30R-CD152) or soluble murine CTLA-4 (R&D systems) at different concentrations (serial dilutions ¼ from 30000 to 0.3 ng/ml).
The mixture was then added to the blocked wells in the ELISA plate. Detection was performed with Streptavidin-HRP (Pierce, #21126) and the plates were subsequently developed using SuperSignal Pico Chemiluminescent substrate (Thermo Scientific, #37069) and detected with Envision reader (Perkin Elmer).

binding result | Binder
binds | B2
binds | B3
binds | B4
binds | B5
binds | B6
binds | B7
binds | B8
binds | B9
binds | B10
binds | B11
binds | B12
binds | B13
binds | B14
binds | B15
binds | B16
binds | B17
binds | B18
binds | B19

molecular target: T6, CTLA4-Fc (Fitzgerald, #30R-CD152) (human, UniProt P16410 38-152); assay: SPR (Biacore), immobilised CTLA4-Fc
T6 construct: Bought; also called human CTLA-4 (Fitzgerald); biotinylated-CTLA4; not shown: Fc part of the bought fusion, not described
Protocol: (§1) Either CTLA4-Fc (Fitzgerald, #30R-CD152) or CD28-Fc (R&D Systems, 342-CD) was immobilized to the Biacore™ sensor chip, CM5, using conventional amine coupling. The CD86 mutant molecules and controls (serially diluted ½ 100-1.5 nM) were analyzed for binding in HBS-P (GE, BR-1003-68) at a flow rate of […]. The association was followed for 3 minutes and the dissociation for 10 minutes. Regeneration was performed twice using 5 mM NaOH for 30 seconds. The kinetic parameters and the affinity constants were calculated using BIAevaluation 4.1 software (Table 1.3).

T6 sequence (P16410 38-152 limits assumed): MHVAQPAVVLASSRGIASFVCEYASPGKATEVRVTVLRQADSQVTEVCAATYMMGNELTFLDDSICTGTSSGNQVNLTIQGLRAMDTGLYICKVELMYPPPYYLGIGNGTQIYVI

Kd [nM] | koff [s⁻¹] | kon [M⁻¹ s⁻¹] | Binder
50 | 0.023 | 460000 | B20
12 | 0.012 | 1e+06 | B11
6 | 0.008 | 1.4e+06 | B12
63 | 0.022 | 340000 | B21
10 | 0.0084 | 850000 | B13
12 | 0.0084 | 700000 | B14
25 | 0.011 | 440000 | B15
8 | 0.0085 | 1e+06 | B16
9 | 0.0083 | 940000 | B17
10 | 0.011 | 1.1e+06 | B18
8 | 0.0094 | 1.1e+06 | B19

molecular target: T2, OX40 chimera 1548: human OX40 with …; assay: flow cytometry, 293-F transfectants
Protocol: The mouse/human chimeras were transiently transfected into FreeStyle 293-F cells (Invitrogen), incubated 48 hours in FreeStyle 293 expression medium (Invitrogen) 37 C, 8% CO₂, 135 rpm. The transfected cells were incubated with human OX40 antibodies, human OX40L (hOX40L, RnD Systems), mouse OX40L (mOX40L, RnD Systems) and controls for 30 min 4° C. and then detected with a-huIgG-PE (Jackson Immunoresearch) 30 min 4° C. Cells were analyzed with FACS Verse (BD Biosciences). Binding to the different chimeric constructs were calculated as relative (mean fluorescence intensity) MFI compared to the binding of the isotype control.

relative MFI vs isotype control | Binder
1.1 | B1

molecular target: T6, CTLA4-Fc (Fitzgerald, #30R-CD152); assay: ELISA on coated CTLA4-Fc and CD28-Fc
Protocol: 96-well flat bottom high binding plates (Greiner, #655074) were coated with either CTLA4-Fc (Fitzgerald, #30R-CD152) or CD28-Fc (R&D systems, 342-CD) by incubating overnight at 4° C. […] The plates were washed again and sample or controls (serially diluted ⅕ from 200-0.001 μg/ml) were added to the wells. The samples were incubated for 1 h at room temperature and then washed. Detection antibody, goat-anti-human IgG Fcγ-HRP (Jackson, #109-035-098) was added and the plates were subsequently developed using SuperSignal Pico Chemiluminescent substrate (Thermo Scientific, #37069) and detected with an Envision reader (Perkin Elmer). EC50 values were calculated for both CTLA4 and CD28. The binding ratio (EC50 binding ratio=[EC50 for CD28]÷[EC50 for CTLA-4]) was calculated for each polypeptide and is shown in Table 1.1.

EC50 binding ratio ([EC50 for CD28]/[EC50 for CTLA-4]) | Binder
7.7 | B2
17.2 | B3
12.2 | B4
2 | B5
30.5 | B6
16.2 | B7
3.5 | B8
9.9 | B9
6.2 | B10
3.4 | B20

molecular target: T6, CTLA4-Fc (Fitzgerald, #30R-CD152); assay: SPR on immobilised CTLA4-Fc and CD28-Fc
Protocol: as §1

Kd binding ratio ([Kd for CD28]/[Kd for CTLA-4]) | Binder
5.1 | B2
2.7 | B3
6.8 | B4
5.5 | B5
5.6 | B6
0.8 | B7
1.9 | B9
4.7 | B10
1.6 | B20

Reference: patent publication US20210238298A1 (ALLIGATOR BIOSCIENCE, published 2021)
